Laboratory results published in publication PMC7948490 (2020).

Assays:
[1] = molecular target: T1, F-actin (alpha-actin, skeletal muscle) (Gallus gallus, UniProt P68139); assay: kinetic global fit (KinTek Explorer), no nucleotide
[2] = molecular target: T1, F-actin (alpha-actin, skeletal muscle); assay: stopped-flow pyrene-actin fluorescence (k-A/k+A), 20 °C, no nucleotide
[3] = molecular target: T1, F-actin (alpha-actin, skeletal muscle); assay: kinetic global fit (KinTek Explorer)

Binder | Kd [1] | Kd [2] | Kd [3]
Myosin-1C35-ΔTH1 isoform C35 lacking TH1 domain (protein) MALQVELVPTGEIIRVVHPHRPCKLALGSDGVRVTMESALTARDRVGVQDFVLLENFTSEAAFIENLRRRFRENLIYTYIGPVLVSVNPYRDLQIYSRQHMERYRGVSFYEVPPHLFAVADTVYRALRTERRDQAVMISGESGAGKTEATKRLLQFYAETCPAPERGGAVRDRLLQSNPVLEAFGNAKTLRNDNSSRFGKYMDVQFDFKGAPVGGHILSYLLEKSRVVHQNHGERNFHIFYQLLEGGEEETLRRLGLERNPQSYLYLVKGQCAKVSSINDKSDWKVVRKALTVIDFTEDEVEDLLSIVASVLHLGNIHFAANEESNAQVTTENQLKYLTRLLSVEGSTLREALTHRKIIAKGEELLSPLNLEQAAYARDALAKAVYSRTFTWLVGKINRSLASKDVESPSWRSTTVLGLLDIYGFEVFQHNSFEQFCINYCNEKLQQLFIELTLKSEQEEYEAEGIAWEPVQYFNNKIICDLVEEKFKGIISILDEECLRPGEATDLTFLEKLEDTVKHHPHFLTHKLADQRTRKSLGRGEFRLLHYAGEVTYSVTGFLDKNNDLLFRNLKETMCSSKNPIMSQCFDRSELSDKKRPETVATQFKMSLLQLVEILQSKEPAYVRCIKPNDAKQPGRFDEVLIRHQVKYLGLLENLRVRRAGFAYRRKYEAFLQRYKSLCPETWPTWAGRPQDGVAVLVRHLGYKPEEYKMGRTKIFIRFPKTLFATEDALEVRRQSLATKIQAAWRGFHWRQKFLRVKRSAICIQSWWRGTLGRRKAAKRKWAAQTIRRLIRGFVLRHAPRCPENAFFLDHVRTSFLLNLRRQLPQNVLDTSWPTPPPALREASELLRELCIKNMVWKYCRSISPEWKQQLQQKAVASEIFKGK | 16.3 nM | 16.9 nM | 22200 nM
Myosin-1C0-ΔTH1 isoform C0 lacking TH1 domain (protein) MESALTARDRVGVQDFVLLENFTSEAAFIENLRRRFRENLIYTYIGPVLVSVNPYRDLQIYSRQHMERYRGVSFYEVPPHLFAVADTVYRALRTERRDQAVMISGESGAGKTEATKRLLQFYAETCPAPERGGAVRDRLLQSNPVLEAFGNAKTLRNDNSSRFGKYMDVQFDFKGAPVGGHILSYLLEKSRVVHQNHGERNFHIFYQLLEGGEEETLRRLGLERNPQSYLYLVKGQCAKVSSINDKSDWKVVRKALTVIDFTEDEVEDLLSIVASVLHLGNIHFAANEESNAQVTTENQLKYLTRLLSVEGSTLREALTHRKIIAKGEELLSPLNLEQAAYARDALAKAVYSRTFTWLVGKINRSLASKDVESPSWRSTTVLGLLDIYGFEVFQHNSFEQFCINYCNEKLQQLFIELTLKSEQEEYEAEGIAWEPVQYFNNKIICDLVEEKFKGIISILDEECLRPGEATDLTFLEKLEDTVKHHPHFLTHKLADQRTRKSLGRGEFRLLHYAGEVTYSVTGFLDKNNDLLFRNLKETMCSSKNPIMSQCFDRSELSDKKRPETVATQFKMSLLQLVEILQSKEPAYVRCIKPNDAKQPGRFDEVLIRHQVKYLGLLENLRVRRAGFAYRRKYEAFLQRYKSLCPETWPTWAGRPQDGVAVLVRHLGYKPEEYKMGRTKIFIRFPKTLFATEDALEVRRQSLATKIQAAWRGFHWRQKFLRVKRSAICIQSWWRGTLGRRKAAKRKWAAQTIRRLIRGFVLRHAPRCPENAFFLDHVRTSFLLNLRRQLPQNVLDTSWPTPPPALREASELLRELCIKNMVWKYCRSISPEWKQQLQQKAVASEIFKGK | 13 nM | 13.7 nM | 10800 nM
